From patent US20140220040A1 (ARCA BIOPHARMA, published 2014)

T1: Human LRP6-Fc (R&D Systems), recombinant human LRP6 containing the complete extracellular domain (human, UniProt O75581 20-1370)
T1 construct: Bought protein; also called hLRP6; Fc-antigen; not shown: Fc part of the bought fusion protein
T1 sequence: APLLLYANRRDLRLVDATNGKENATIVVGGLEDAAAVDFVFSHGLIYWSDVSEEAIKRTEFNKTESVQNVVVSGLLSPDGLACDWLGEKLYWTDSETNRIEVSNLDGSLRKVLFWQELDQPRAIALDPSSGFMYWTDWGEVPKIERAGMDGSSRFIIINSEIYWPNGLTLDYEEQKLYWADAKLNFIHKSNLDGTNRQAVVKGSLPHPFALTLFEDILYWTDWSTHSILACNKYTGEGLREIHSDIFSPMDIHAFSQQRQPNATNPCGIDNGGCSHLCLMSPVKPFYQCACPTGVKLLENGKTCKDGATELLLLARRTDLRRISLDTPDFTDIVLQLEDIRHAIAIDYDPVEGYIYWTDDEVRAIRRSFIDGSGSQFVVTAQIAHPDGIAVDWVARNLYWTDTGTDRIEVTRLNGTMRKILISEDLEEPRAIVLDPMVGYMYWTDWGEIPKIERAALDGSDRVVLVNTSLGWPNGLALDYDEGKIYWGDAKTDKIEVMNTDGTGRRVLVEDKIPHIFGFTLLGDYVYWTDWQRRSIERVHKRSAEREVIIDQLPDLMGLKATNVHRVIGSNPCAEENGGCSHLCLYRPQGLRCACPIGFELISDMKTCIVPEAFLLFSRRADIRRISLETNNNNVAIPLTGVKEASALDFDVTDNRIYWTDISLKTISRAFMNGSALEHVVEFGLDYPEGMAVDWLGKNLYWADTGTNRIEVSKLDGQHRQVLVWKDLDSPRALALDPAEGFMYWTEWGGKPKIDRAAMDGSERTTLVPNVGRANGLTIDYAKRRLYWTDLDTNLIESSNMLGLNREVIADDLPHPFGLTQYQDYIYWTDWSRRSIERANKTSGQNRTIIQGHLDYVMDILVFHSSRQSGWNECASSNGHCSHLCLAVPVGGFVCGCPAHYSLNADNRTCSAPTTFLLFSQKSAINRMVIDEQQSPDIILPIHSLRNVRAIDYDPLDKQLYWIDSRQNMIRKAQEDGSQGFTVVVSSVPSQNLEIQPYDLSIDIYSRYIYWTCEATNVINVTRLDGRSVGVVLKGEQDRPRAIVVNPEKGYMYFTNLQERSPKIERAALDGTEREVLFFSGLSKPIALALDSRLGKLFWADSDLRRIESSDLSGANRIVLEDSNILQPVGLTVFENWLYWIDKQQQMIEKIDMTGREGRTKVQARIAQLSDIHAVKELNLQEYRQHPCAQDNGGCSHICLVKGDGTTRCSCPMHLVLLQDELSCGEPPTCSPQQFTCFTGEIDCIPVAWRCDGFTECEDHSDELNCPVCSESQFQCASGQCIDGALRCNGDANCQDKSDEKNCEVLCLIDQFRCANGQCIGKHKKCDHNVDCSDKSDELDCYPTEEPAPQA

T2: LRP6Δ1-2 propeller domain deletion construct (human, UniProt O75581 629-1613)
T2 construct: Deletion construct of human LRP6 expressed in 293 cells
T2 sequence: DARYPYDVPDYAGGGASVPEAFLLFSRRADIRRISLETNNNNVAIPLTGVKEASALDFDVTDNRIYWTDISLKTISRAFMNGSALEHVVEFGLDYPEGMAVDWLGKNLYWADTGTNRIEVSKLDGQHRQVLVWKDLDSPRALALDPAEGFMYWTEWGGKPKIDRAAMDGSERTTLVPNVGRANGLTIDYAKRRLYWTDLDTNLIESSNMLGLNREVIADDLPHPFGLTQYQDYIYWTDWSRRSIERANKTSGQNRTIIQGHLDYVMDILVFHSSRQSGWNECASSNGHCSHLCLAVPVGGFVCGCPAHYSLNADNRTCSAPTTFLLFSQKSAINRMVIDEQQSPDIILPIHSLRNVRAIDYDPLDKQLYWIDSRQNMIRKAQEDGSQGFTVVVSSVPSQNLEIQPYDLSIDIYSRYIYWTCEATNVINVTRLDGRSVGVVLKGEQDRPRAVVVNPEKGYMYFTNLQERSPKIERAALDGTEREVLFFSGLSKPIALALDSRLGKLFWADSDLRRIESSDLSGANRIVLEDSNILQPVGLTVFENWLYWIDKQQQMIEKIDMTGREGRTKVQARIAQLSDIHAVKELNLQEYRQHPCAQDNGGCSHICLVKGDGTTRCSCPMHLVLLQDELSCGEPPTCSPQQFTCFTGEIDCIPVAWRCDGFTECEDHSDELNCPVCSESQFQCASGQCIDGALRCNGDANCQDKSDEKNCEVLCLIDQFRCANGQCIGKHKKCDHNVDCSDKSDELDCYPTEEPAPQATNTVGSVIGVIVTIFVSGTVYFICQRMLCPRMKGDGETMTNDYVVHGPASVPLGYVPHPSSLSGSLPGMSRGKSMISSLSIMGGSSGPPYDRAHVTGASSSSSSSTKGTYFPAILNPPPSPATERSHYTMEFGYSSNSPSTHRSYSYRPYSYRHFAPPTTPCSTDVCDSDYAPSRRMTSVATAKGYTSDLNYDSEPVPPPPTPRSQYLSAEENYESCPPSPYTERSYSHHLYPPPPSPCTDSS

T3: LRP6Δ1/4
T3 construct: also called LRP6Del1-4
T3 chain: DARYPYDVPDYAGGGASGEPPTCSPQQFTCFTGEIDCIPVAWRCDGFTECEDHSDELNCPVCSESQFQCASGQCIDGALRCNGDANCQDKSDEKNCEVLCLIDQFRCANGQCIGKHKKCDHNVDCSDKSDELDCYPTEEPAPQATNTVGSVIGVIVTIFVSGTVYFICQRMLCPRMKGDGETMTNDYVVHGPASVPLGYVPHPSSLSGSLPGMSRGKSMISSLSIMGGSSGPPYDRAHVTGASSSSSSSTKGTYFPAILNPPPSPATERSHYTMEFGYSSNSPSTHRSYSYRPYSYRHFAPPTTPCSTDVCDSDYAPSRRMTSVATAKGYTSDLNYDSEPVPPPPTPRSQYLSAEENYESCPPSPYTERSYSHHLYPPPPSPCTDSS


Experiments:
[1] = target: T1, Human LRP6-Fc (R&D Systems), …; assay: SPR (BIAcore), mAb captured on anti-mouse chip, Fc-antigen injected, 1:1 model
Procedure: (§1) Kinetic rate constants (kₐ and kd) were determined using surface plasmon resonance, and affinities (KD) were then calculated from the rate constants (kd/kₐ). Surface plasmon resonance was carried out on a BIAcore system (Biacore International AB, Uppsala, Sweden). Each murine anti-LRP6 mAb sample was diluted 100 fold and captured onto an anti-mouse sensor chip surface. The running buffer contained 10 mM HEPES, 150 mM NaCl, 0.005% Tween-20 and 0.1 mg/ml BSA. Following the capturing step, the Fc-antigen was injected at 45 nM as the highest concentration in a 3-fold dilution series. The association and dissociation phases were monitored for 8 and 60 minutes, respectively. The antigen response data were fit into a 1:1 interaction model.

[2] = target: T2, LRP6Δ1-2 propeller domain deletion …; assay: flow cytometry on 293 cells expressing the deletion construct
Procedure: (§2) To identify the region of LRP6 that is recognized by LRP6 mAbs, a series of LRP6 propeller domain deletion constructs were made (SEQ ID NO: 6-15) and expressed in 293 cells. Binding of anti-LRP6 mAbs was determined by flow cytometry. […] Amino acid sequence alignments of the heavy and light chain variable domains of the anti-LRP6 mAbs disclosed herein are shown in FIGS. 4 and 5, respectively.

LRP6Δ1/4 = target: T3, LRP6Δ1/4; assay: FACS on 293 cells transfected with LRP6Δ1/4 [cont.]
Procedure: as §2

[3] = target: T1, Human LRP6-Fc (R&D Systems), …; assay: SPR (BIAcore): mAb captured on an anti-mouse chip, Fc-antigen injected from 45 nM in 3-fold dilutions, 1:1 fit. The sheet prints no unit for ka; the unit is from the head of Table 4. [cont., panel R]
Procedure: as §1

[4] = target: T1, Human LRP6-Fc (R&D Systems), …; assay: SPR (BIAcore): mAb captured on an anti-mouse chip, Fc-antigen injected from 45 nM in 3-fold dilutions, 1:1 fit. The sheet prints no unit for kd; the unit is from the head of Table 4. [cont., panel R]
Procedure: as §1

[5] = target: T1, Human LRP6-Fc (R&D Systems), …; assay: SPR (BIAcore): mAb captured on an anti-mouse chip, Fc-antigen injected from 45 nM in 3-fold dilutions, 1:1 fit [cont., panel R]
Procedure: as §1

| Binder | Kd [1] | koff [1] | kon [1] | binding result [2] | binding result (LRP6Δ1/4) | kon [3] | koff [4] | Kd [5] |
| --- | --- | --- | --- | --- | --- | --- | --- | --- |
| anti-LRP6 monoclonal antibody 1470.2 (antibody, V domains shown, Murine hybridoma mAb, protein G purified; also called VH22/VL22) VH: DVNLVESGGGLVKLGGSLKLSCAASGFTFSSFYMSWVRQTPEKRLDLVAAINTNGGSTYYSDTVKGRFTISRDNAKNTLYLQMSSLKSEDTALFYCARQPYYGGPMDFWGQGTSVTVSS VL: DIVLTQSPATLSVTPGDSVSLSCRASQSINNNLHWYQQKSHESPRLLIKYASQSISGIPSRFSGSGSGTDFTLSINSVETEDFGMYFCQQSNNWPLTFGAGTKLEL | – | – | – | – | – | 20800 M⁻¹ s⁻¹ | 7.3e-05 s⁻¹ | 3.51 nM |
| anti-LRP6 monoclonal antibody 1903.1 (antibody, V domains shown, Murine hybridoma mAb, protein G purified; also called VH23/VL23) VH: DVNLVESGGGLVKLGGSLKLSCAASGFTFSRFYMSWVRQTPEKRLDLVAAINTNGGSTYYSDTVKGRFTISRDNAKNTLYLQMSSLKSEDTALFYCARQPYYGGPMEFWGQGTSVTVSS VL: DIVMTQSQKFMSTSVGDRVSVTCKASQNVGTNVAWYQQKPGQSPKALIYSASYRYSGVPDRFTGSGSGSDFTLTISNVQSEDLAEYFCQQYNSYPLTFGAGTKLEL | 2.79 nM | 9.4e-05 s⁻¹ | 33700 M⁻¹ s⁻¹ | – | – | – | – | – |

Further binders by falling Kd [1], results first:

| Kd [1] | koff [1] | kon [1] | binding result [2] | binding result (LRP6Δ1/4) | kon [3] | koff [4] | Kd [5] | Binder |
| --- | --- | --- | --- | --- | --- | --- | --- | --- |
| 1.68 nM | 7.7e-05 s⁻¹ | 45600 M⁻¹ s⁻¹ | – | – | – | – | – | anti-LRP6 monoclonal antibody 1433.8 (antibody, V domains shown, Murine hybridoma mAb, protein G purified; also called VH21/VL21) VH: QVQLQQSGAELAKPGASVKMSCKASGYTFTSYWMHWVKQRPGQGLEWIGYINPSTGYTEYNQKFRDKATLTADKSSSTANMQLSSLTSEDSAVYYCTRTAQYYGSPRGYYAMDSWGQGTSVTVSS VL: MTQAAFSNPVTLGTSASISCRSSKSLLHSNGITYLCWFLQKPGQSPQLLIYLMSNLASGVPDRFSSSGSGTDFTLRISRVEAEDVGVYFCAQNLDLPWTFGGGTKLEI |
| 1.07 nM | 6.3e-05 s⁻¹ | 58800 M⁻¹ s⁻¹ | – | – | – | – | – | anti-LRP6 monoclonal antibody 1213.2 (antibody, V domains shown, Murine hybridoma mAb, protein G purified; also called VH17/VL17) VH: DVNLVESGGGLVKLGGSLKLSCAASGFTFSSFYMSWVRQTPEKRLDLVATINTNGGSTYYSDTVKGRFTISRDNAKNTLYLQMNSLKSEDTALFYCVRQPYYGGTMDYWGQGTSVTVSS VL: DIVLTQSPATLSVTPGDRVSLSCRASQSINNNLHWYQQKSHESPRLLIKYASQSISGIPSRFSGSGSGTDFTLSINSVETEDFGMYFCQQTNNWPLTFGAGTKLEL |
| 0.73 nM | 1.9e-05 s⁻¹ | 26300 M⁻¹ s⁻¹ | no binding | no binding (tested: not stated) | – | – | – | anti-LRP6 monoclonal antibody 135.16 (antibody, V domains shown, Murine hybridoma mAb, protein G purified; also called mAb135.16) VH: QVQLQQSGAELVKPGASVKMSCKAFGYTFTSYPIEWMKQNHGKSLEWIGNFHPYNDNTKYNEKFKGKAKLTVEKSSSTVYLELSRSTSDDSAVYYCARGYSGNYFSAMDYWGQGTSVTVSS VL: DIVMTQSQKFMSTSVGDRVSITCKASQNVRNDVAWYQQKPGQSPKSLIYLASNRHTGVPDRFTGSGSGTDFTLTISNVQSEDLADYFCLQHWNYPYTFGGGTKLEIKR |
